Experimental data taken from patent US20250163127A1 (published 2025).

T1: human CD86 (human)
T1 chain: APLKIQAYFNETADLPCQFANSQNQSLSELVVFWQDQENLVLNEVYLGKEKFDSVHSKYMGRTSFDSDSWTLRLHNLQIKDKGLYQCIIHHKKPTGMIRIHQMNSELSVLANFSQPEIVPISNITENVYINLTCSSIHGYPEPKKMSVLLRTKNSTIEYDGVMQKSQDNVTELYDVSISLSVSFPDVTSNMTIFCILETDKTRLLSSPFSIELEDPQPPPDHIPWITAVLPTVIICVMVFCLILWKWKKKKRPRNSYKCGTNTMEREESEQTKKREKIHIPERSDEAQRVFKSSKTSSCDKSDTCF

B1: PD-L1 303-PD-L1 303-CD58 3650-CD58 3650 (other)
chain: FTVTVPKDLYVVEYGSNMTIECKFPVEKQLDLAALIVYWEMEGKDIIQFVHGEEDQKAQHSSYRQRARLLKDQLSLGNAALQITDVKLQDAGVYRCMISYGGGADYKRITVKVNAGGGGSGGGGSGGGGSFTVTVPKDLYVVEYGSNMTIECKFPVEKQLDLAALIVYWEMEGKDIIQFVHGEEDQKAQHSSYRQRARLLKDQLSLGNAALQITDVKLQDAGVYRCMISYGGGADYKRITVKVNAGGGGSGGGGSGGGGSSQQIYGVVYGNVTFHVPSNVPLKEVLWKKQKDKVAELENSEFRAFSSFKNRVYLDTVSGSLTIYNLTSSDEDEYEMESPNITDTMKFFLYVLESGSGGSGGGGSGGGGSSQQIYGVVYGNVTFHVPSNVPLKEVLWKKQKDKVAELENSEFRAFSSFKNRVYLDTVSGSLTIYNLTSSDEDEYEMESPNITDTMKFFLYVLESGSGGGGSDYKDDDDKHHHHHH
B2: PD-L1 303-CD58 3650-Fc (Fc fusion)
chain: FTVTVPKDLYVVEYGSNMTIECKFPVEKQLDLAALIVYWEMEGKDIIQFVHGEEDQKAQHSSYRQRARLLKDQLSLGNAALQITDVKLQDAGVYRCMISYGGGADYKRITVKVNAGGGGSGGGGSGGGGSSQQIYGVVYGNVTFHVPSNVPLKEVLWKKQKDKVAELENSEFRAFSSFKNRVYLDTVSGSLTIYNLTSSDEDEYEMESPNITDTMKFFLYVLESGSGGGGSEPKSSDKTHTCPPCPAPEAEGAPSVFLFPPKPKDTLMISRTPEVTCVVVDVSHEDPEVKFNWYVDGVEVHNAKTKPREEQYNSTYRVVSVLTVLHQDWLNGKEYKCKVSNKALPAPIEKTISKAKGQPREPQVYTLPPSRDELTKNQVSLTCLVKGFYPSDIAVEWESNGQPENNYKTTPPVLDSDGSFFLYSKLTVDKSRWQQGNVFSCSVMHEALHNHYTQKSLSLSPG
B3: CD58 3650-PD-L1 303-Fc (Fc fusion)
chain: SQQIYGVVYGNVTFHVPSNVPLKEVLWKKQKDKVAELENSEFRAFSSFKNRVYLDTVSGSLTIYNLTSSDEDEYEMESPNITDTMKFFLYVLESGGGGSGGGGSGGGGSFTVTVPKDLYVVEYGSNMTIECKFPVEKQLDLAALIVYWEMEGKDIIQFVHGEEDQKAQHSSYRQRARLLKDQLSLGNAALQITDVKLQDAGVYRCMISYGGGADYKRITVKVNAGSGGGGSEPKSSDKTHTCPPCPAPEAEGAPSVFLFPPKPKDTLMISRTPEVTCVVVDVSHEDPEVKFNWYVDGVEVHNAKTKPREEQYNSTYRVVSVLTVLHQDWLNGKEYKCKVSNKALPAPIEKTISKAKGQPREPQVYTLPPSRDELTKNQVSLTCLVKGFYPSDIAVEWESNGQPENNYKTTPPVLDSDGSFFLYSKLTVDKSRWQQGNVFSCSVMHEALHNHYTQKSLSLSPG
B4: CD58 3650-CD58 3650-PD-L1 303-PD-L1 303 (other)
chain: SQQIYGVVYGNVTFHVPSNVPLKEVLWKKQKDKVAELENSEFRAFSSFKNRVYLDTVSGSLTIYNLTSSDEDEYEMESPNITDTMKFFLYVLESGGGGSGGGGSGGGGSSQQIYGVVYGNVTFHVPSNVPLKEVLWKKQKDKVAELENSEFRAFSSFKNRVYLDTVSGSLTIYNLTSSDEDEYEMESPNITDTMKFFLYVLESGGGGSGGGGSGGGGSFTVTVPKDLYVVEYGSNMTIECKFPVEKQLDLAALIVYWEMEGKDIIQFVHGEEDQKAQHSSYRQRARLLKDQLSLGNAALQITDVKLQDAGVYRCMISYGGGADYKRITVKVNAGSGGSGGGGSGGGGSFTVTVPKDLYVVEYGSNMTIECKFPVEKQLDLAALIVYWEMEGKDIIQFVHGEEDQKAQHSSYRQRARLLKDQLSLGNAALQITDVKLQDAGVYRCMISYGGGADYKRITVKVNAGSGGGGSDYKDDDDKHHHHHH
B5: PD-L1 303-CTLA4 3060-Fc (Fc fusion)
chain: FTVTVPKDLYVVEYGSNMTIECKFPVEKQLDLAALIVYWEMEGKDIIQFVHGEEDQKAQHSSYRQRARLLKDQLSLGNAALQITDVKLQDAGVYRCMISYGGGADYKRITVKVNAGSGGSGGGGSGGGGSKAMHVAQPAVVFASSHGIASFVCEYASPWKATEVRVTVLRQADSQVTEVCAATYMTGNELTFLDDSICTGTSSGNQVNLTIQGLRAMDTGLYICKVEQMYPPPYLLGIGNGTQIYVIDPEPCPDSDGGGGSGSGGGGSEPKSSDKTHTCPPCPAPEAEGAPSVFLFPPKPKDTLMISRTPEVTCVVVDVSHEDPEVKFNWYVDGVEVHNAKTKPREEQYNSTYRVVSVLTVLHQDWLNGKEYKCKVSNKALPAPIEKTISKAKGQPREPQVYTLPPSRDELTKNQVSLTCLVKGFYPSDIAVEWESNGQPENNYKTTPPVLDSDGSFFLYSKLTVDKSRWQQGNVFSCSVMHEALHNHYTQKSLSLSPG
B6: CTLA-4 3037-Fc-PD-L1 303 (SEQ ID NO 3670) (Fc fusion)
chain: KAMHVAQPAVVLASSRGIASFVCEYASPWKATEVRVTVLRQADSQVTEVCAATYMMGSELTFPDDSICTGTSSGNQVNLTIRGLRAMDTGLYICKVEQMYPPPYLLGIGNGTQIYVIDPEPCPDSDGSGGGGSEPKSSDKTHTCPPCPAPEAEGAPSVFLFPPKPKDTLMISRTPEVTCVVVDVSHEDPEVKFNWYVDGVEVHNAKTKPREEQYNSTYRVVSVLTVLHQDWLNGKEYKCKVSNKALPAPIEKTISKAKGQPREPQVYTLPPSRDELTKNQVSLTCLVKGFYPSDIAVEWESNGQPENNYKTTPPVLDSDGSFFLYSKLTVDKSRWQQGNVFSCSVMHEALHNHYTQKSLSLSPGGGGGSGGGGSGGGGSFTVTVPKDLYVVEYGSNMTIECKFPVEKQLDLAALIVYWEMEGKDIIQFVHGEEDQKAQHSSYRQRARLLKDQLSLGNAALQITDVKLQDAGVYRCMISYGGGADYKRITVKVNA
B7: CTLA-4 3060-PD-L1 303-Fc (Fc fusion)
chain: KAMHVAQPAVVFASSHGIASFVCEYASPWKATEVRVTVLRQADSQVTEVCAATYMTGNELTFLDDSICTGTSSGNQVNLTIQGLRAMDTGLYICKVEQMYPPPYLLGIGNGTQIYVIDPEPCPDSDGSGGSGGGGSGGGGSFTVTVPKDLYVVEYGSNMTIECKFPVEKQLDLAALIVYWEMEGKDIIQFVHGEEDQKAQHSSYRQRARLLKDQLSLGNAALQITDVKLQDAGVYRCMISYGGGADYKRITVKVNAGGGGSGSGGGGSEPKSSDKTHTCPPCPAPEAEGAPSVFLFPPKPKDTLMISRTPEVTCVVVDVSHEDPEVKFNWYVDGVEVHNAKTKPREEQYNSTYRVVSVLTVLHQDWLNGKEYKCKVSNKALPAPIEKTISKAKGQPREPQVYTLPPSRDELTKNQVSLTCLVKGFYPSDIAVEWESNGQPENNYKTTPPVLDSDGSFFLYSKLTVDKSRWQQGNVFSCSVMHEALHNHYTQKSLSLSPG
B8: CTLA4 3037-Fc-PD-L1 303 (SEQ ID NO 3672) (Fc fusion)
chain: KAMHVAQPAVVLASSRGIASFVCEYASPWKATEVRVTVLRQADSQVTEVCAATYMMGSELTFPDDSICTGTSSGNQVNLTIRGLRAMDTGLYICKVEQMYPPPYLLGIGNGTQIYVIDPEPCPDSDGSGGGGSEPKSSDKTHTCPPCPAPEAEGAPSVFLFPPKPKDTLMISRTPEVTCVVVDVSHEDPEVKFNWYVDGVEVHNAKTKPREEQYNSTYRVVSVLTVLHQDWLNGKEYKCKVSNKALPAPIEKTISKAKGQPREPQVYTLPPSRDELTKNQVSLTCLVKGFYPSDIAVEWESNGQPENNYKTTPPVLDSDGSFFLYSKLTVDKSRWQQGNVFSCSVMHEALHNHYTQKSLSLSPGGGGGSGGGGSGGGGSAFTVTVPKDLYVVEYGSNMTIECKFPVEKQLDLAALIVYWEMEGKDIIQFVHGEEDQKAQHSSYRQRARLLKDQLSLGNAALQITDVKLQDAGVYRCMISYGGGADYKRITVKVNA

Target: human PD-1 (human, UniProt Q15116)
Test: flow cytometry, Jurkat/IL-2/PD-1 cells

Row | EC50 [nM] | Binder
1 | 2 | B1
2 | 1.2 | B2
3 | 4.6 | B3
4 | 19.5 | B4

Target: PD-1 (human, UniProt Q15116)
Test: cell-based or functional assay

Row | 100 nM IFN-gamma (pg/mL), SEB assay [pg/mL] | Binder
5 | 4470 | B5
6 | 1570 | B6
7 | 3790 | B7
8 | 2070 | B8

Target: T1, human CD86
Test: cell-based or functional assay

Row | 100 nM IFN-gamma (pg/mL), SEB assay [pg/mL] | Binder
9 | 4470 | B5
10 | 1570 | B6
11 | 3790 | B7
12 | 2070 | B8

Target: CD2 (Homo sapiens (Human), UniProt P06729)
Test: flow cytometry, CHO-CD2 cells

Row | EC50 [nM] | Binder
13 | 13.7 | B1
14 | 0.661 | B2
15 | 2 | B3
16 | 24.4 | B4
